Experimental data taken from patent US20150023971A1.

Experiments:
[1] = target: T1, …; experiment: SPOT length analysis, dot 14, HRP-S-protein detection
T1 sequence (peptide): RSSDFAKNFVQT

NFVQ [2] = target: T2, NFVQ; experiment: SPOT length analysis, dot 89, anti-histidine detection
T2 sequence (peptide): NFVQ

FRSS = target: T3, FRSS; experiment: SPOT length analysis, dot 81, anti-histidine detection
T3 sequence (peptide): FRSS

[3] = target: T4, sortilin peptide … on SPOT membrane; experiment: SPOT length analysis, dot 36, HRP-S-protein detection
T4 sequence (peptide, C-terminus anchored to the cellulose membrane through a beta-alanine linker): FAKNFVQTD

[4] = target: T5, …; experiment: SPOT length analysis, dot 35, HRP-S-protein detection
T5 sequence (peptide): DFAKNFVQT

FRSSDF = target: T6, FRSSDF; experiment: SPOT length analysis, dot 58, anti-histidine detection
T6 sequence (peptide): FRSSDF

KNFV [5] = target: T7, KNFV; experiment: SPOT length analysis, dot 88, HRP-S-protein detection
T7 sequence (peptide): KNFV

[6] = target: T8, …; experiment: SPOT length analysis, dot 22, HRP-S-protein detection
T8 sequence (peptide): RIFRSSDFAK

[7] = target: T9, …; experiment: SPOT length analysis, dot 6, HRP-S-protein detection
T9 sequence (peptide): FRSSDFAKNFVQTD

[8] = target: T10, …; experiment: SPOT length analysis, dot 17, anti-histidine detection
T10 sequence (peptide): IFRSSDFAKNF

FRSSDFA = target: T11, FRSSDFA; experiment: SPOT length analysis, dot 48, HRP-S-protein detection
T11 sequence (peptide): FRSSDFA

FVQT = target: T12, FVQT; experiment: SPOT length analysis, dot 90, HRP-S-protein detection
T12 sequence (peptide): FVQT

[9] = target: T13, sortilin 4-mer peptide RIFR (length analysis); experiment: SPOT length analysis, dot 79, HRP-S-protein detection
T13 sequence (peptide, C-terminus anchored to the cellulose membrane through a beta-alanine linker): RIFR

[10] = target: T14, sortilin peptide … (synthetic, soluble); experiment: SPOT length analysis, dot 11 (peptide here cellulose-bound), HRP-S-protein detection
T14 sequence (peptide): RIFRSSDFAKNF

SSDFAKNF = target: T15, SSDFAKNF; experiment: SPOT length analysis, dot 41, anti-histidine detection
T15 sequence (peptide): SSDFAKNF

DFAKN = target: T16, DFAKN; experiment: SPOT length analysis, dot 73, anti-histidine detection
T16 sequence (peptide): DFAKN

AKNFVQT = target: T17, AKNFVQT; experiment: SPOT length analysis, dot 54, anti-histidine detection
T17 sequence (peptide): AKNFVQT

[11] = target: T1, …; experiment: SPOT length analysis, dot 14, anti-histidine detection
RIFRSSD = target: T18, RIFRSSD; experiment: SPOT length analysis, dot 46, HRP-S-protein detection
T18 sequence (peptide): RIFRSSD

[12] = target: T5, …; experiment: SPOT length analysis, dot 35, anti-histidine detection
[13] = target: T19, …; experiment: SPOT length analysis, dot 19, anti-histidine detection
T19 sequence (peptide): RSSDFAKNFVQ

[14] = target: T20, …; experiment: SPOT length analysis, dot 27, anti-histidine detection
T20 sequence (peptide): SDFAKNFVQT

SDFA [15] = target: T21, SDFA; experiment: SPOT length analysis, dot 84, anti-histidine detection
T21 sequence (peptide): SDFA

RSSDF = target: T22, RSSDF; experiment: SPOT length analysis, dot 70, HRP-S-protein detection
T22 sequence (peptide): RSSDF

[16] = target: T23, …; experiment: SPOT length analysis, dot 34, anti-histidine detection
T23 sequence (peptide): SDFAKNFVQ

RSSD = target: T24, RSSD; experiment: SPOT length analysis, dot 82, anti-histidine detection
T24 sequence (peptide): RSSD

NFVQ [17] = target: T2, NFVQ; experiment: SPOT length analysis, dot 89, HRP-S-protein detection
SDFA [18] = target: T21, SDFA; experiment: SPOT length analysis, dot 84, HRP-S-protein detection
KNFV [19] = target: T7, KNFV; experiment: SPOT length analysis, dot 88, anti-histidine detection
VQTD = target: T25, VQTD; experiment: SPOT length analysis, dot 91, HRP-S-protein detection
T25 sequence (peptide): VQTD

[20] = target: T26, …; experiment: SPOT length analysis, dot 30, HRP-S-protein detection
T26 sequence (peptide): IFRSSDFAK

[21] = target: T4, sortilin peptide … on SPOT membrane; experiment: SPOT length analysis, dot 36, anti-histidine detection
[22] = target: T27, …; experiment: SPOT length analysis, dot 20, anti-histidine detection
T27 sequence (peptide): SSDFAKNFVQT

[23] = target: T28, …; experiment: SPOT length analysis, dot 9, HRP-S-protein detection
T28 sequence (peptide): FRSSDFAKNFVQT

SDFAK = target: T29, SDFAK; experiment: SPOT length analysis, dot 72, HRP-S-protein detection
T29 sequence (peptide): SDFAK

- BLU Sprotein [1]: 24600 BLU
- BLU His (NFVQ [2]): 14700 BLU
- BLU His (FRSS): 20100 BLU
- BLU Sprotein [3]: 18800 BLU
- BLU Sprotein [4]: 19500 BLU
- BLU His (FRSSDF): 17500 BLU
- BLU Sprotein (KNFV [5]): 13800 BLU
- BLU Sprotein [6]: 60500 BLU
- BLU Sprotein [7]: 38100 BLU
- BLU His [8]: 40700 BLU
- BLU Sprotein (FRSSDFA): 17200 BLU
- BLU Sprotein (FVQT): 13600 BLU
- BLU Sprotein [9]: 166000 BLU
- BLU Sprotein [10]: 166000 BLU
- BLU His (SSDFAKNF): 15500 BLU
- BLU His (DFAKN): 17800 BLU
- BLU His (AKNFVQT): 17300 BLU
- BLU His [11]: 24700 BLU
- BLU Sprotein (RIFRSSD): 21500 BLU
- BLU His [12]: 19100 BLU
- BLU His [13]: 26000 BLU
- BLU His [14]: 17500 BLU
- BLU His (SDFA [15]): 14200 BLU
- BLU Sprotein (RSSDF): 15500 BLU
- BLU His [16]: 18400 BLU
- BLU His (RSSD): 15000 BLU
- BLU Sprotein (NFVQ [17]): 13400 BLU
- BLU Sprotein (SDFA [18]): 13300 BLU
- BLU His (KNFV [19]): 14900 BLU
- BLU Sprotein (VQTD): 13800 BLU
- BLU Sprotein [20]: 25700 BLU
- BLU His [21]: 30800 BLU
- BLU His [22]: 16700 BLU
- BLU Sprotein [23]: 223000 BLU
- BLU Sprotein (SDFAK): 14800 BLU
B1: recombinant his-S-tagged pro-domain of human BDNF (residues Ala1-Arg110), from pET-30 Xa/LIC, E. coli (protein, not shown: small tags and cut ends)
chain: APMKEANIRGQGGLAYPGVRTHGTLESVNGPKAGSGLTSLADTFEHVIEELLDEDQKVRPNEENNKDADLYTSRVMLSSQVPLEPPLLFLLEEYKNYLDAANMSMRVRR
